These results are taken from patent US20220220215A1 (CRESCENDO BIOLOGICS, published 2022).

Assay [1] deals with T1, recombinant Fc-tagged ectodomain of human CD137 (Acro Biosystems 41B-H5258) (human, UniProt Q07011 24-186).
T1 construct: Bought protein; not shown: Fc tag
Put plainly: SPR, Biacore 8K, single-cycle kinetics; Fc-tagged ectodomain captured on Protein G chip; 1:1 model. How it is done:
(§1) Binding of Humabody® VH constructs was measured using a single-cycle kinetics method using the BIAcore 8K instrument with 90 second sample injections with a sample concentration range of low nanomolar to high nanomolar. […] The Protein G sensor surface was regenerated with a 20 second injection of 10 mM Glycine buffer, pH 1.5 (GE Healthcare BR100354). Data were analysed using a 1:1 binding model in Biacore Insight Evaluation software, including Humabody® VH constructs with two PD-1 arms.
(In general: In SPR one partner is held on a chip, and binding of the other changes the refractive index at the surface.)

Assay [2] addresses T2, recombinant Fc-tagged ectodomain of human PD1 (Acro Biosystems PD1-H5257) (human, UniProt Q15116 25-170).
T2 construct: Bought protein; not shown: Fc tag
Put plainly: SPR, Biacore 8K, single-cycle kinetics; Fc-tagged ectodomain captured on Protein G chip; 1:1 model (construct with two PD-1 arms). How it is done: as §1

Assay [3] has as its target T3, human CD137 expressed on cells (Jurkat human CD137 NF-kB luciferase reporter cells; human CD8+ T cells) (human, UniProt Q07011 24-255). The experiment in a line: cell-based or functional assay.
Assay [4] concerns the target T4, human CD137 expressed on CHO cells (human, UniProt Q07011 18-255).
T4 construct: also called CHO huCD137; CHO human CD137 cells
Put plainly: flow cytometry on CHO huCD137 cells.

Assay [5] concerns the target T5, human PD-1 expressed on CHO cells (human, UniProt Q15116 21-288).
T5 construct: also called CHO huPD1; CHO human PD1 cells
The experiment in a line: flow cytometry on CHO huPD1 cells. In general terms: In flow cytometry, cells or beads pass a laser one at a time.

In assay [6] the target is T5, human PD-1 expressed on CHO cells. Put plainly: FMAT/Mirrorball on CHO huPD1 cells. In a few lines: (§2)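 His-tagged VH molecules bound to CHO cells expressing human PD-1 or human CD137, with CHO parent cells as control, in PBS pH 7.4, 0.1% BSA, 0.05% sodium azide. Read by FMAT on Mirrorball (ex 488/640 nm); binding taken as FL2 median fluorescence intensity of FL5-gated events.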

The target in assay [7] is T4, human CD137 expressed on CHO cells. Put plainly: FMAT/Mirrorball on CHO huCD137 cells. In a few lines: as §2
Assay [8] addresses T3, human CD137 expressed on cells (Jurkat …). Put plainly: cell-based or functional assay. This is another data set of the same source.

B1: TPP-1439 PD138G7(G109D)-6GS-PD138G7(G109D)-6GS-CD137A-7-6GS-HSA2 (bispecific antibody)
chain: EVQLVESGGGVVRPGGSLRLSCAASGFTFDDYAMSWVRQAPGKGLEWVSGITWNGGSTGYADSVKDRFTISRDNAKNSLYLQMNSLRAEDTALYYCVRDKYSYAWSYDDFDIWGQGTMVTVSSGGGGSGGGGSGGGGSGGGGSGGGGSGGGGSEVQLVESGGGVVRPGGSLRLSCAASGFTFDDYAMSWVRQAPGKGLEWVSGITWNGGSTGYADSVKDRFTISRDNAKNSLYLQMNSLRAEDTALYYCVRDKYSYAWSYDDFDIWGQGTMVTVSSGGGGSGGGGSGGGGSGGGGSGGGGSGGGGSEVQLVESGGGLVQPGGSLRLSCAASGFTLSNYWMNWVRQAPGKGLEWVANINQDGSERYYVDSVKGRFTISRDNAKNSLYLQMNSLRAEDTAVYYCARGGEGYGVDHYGLDVSGQGTTVTVSSGGGGSGGGGSGGGGSGGGGSGGGGSGGGGSEVQLVESGGGLVKPGGSLRLSCAASGFTFSNYNMNWVRQAPGKGLEWVSSISSAGTHIYYADSVKGRFTISRDNAKNSLYLQMNSLRAEDTAVYYCARDPHSTGWYKDFDYWGQGTLVTVSS
notes: Single-chain fusion of four VH single domains, two PD-1 arms
Regarding B1, in assay [1], the Kd (usually the concentration at which binding is half-saturated) was determined as 0.506 nM; the dissociation rate constant (koff) (commonly the first-order rate constant of dissociation) worked out at 0.000107 s⁻¹; the on-rate constant (kon) – broadly, the rate constant with which the complex forms – stood at 800000 M⁻¹ s⁻¹. Moreover, in assay [2], the Kd was 0.0683 nM, the koff came out at 5.12e-05 s⁻¹ and the association rate constant (kon) came out at 750000 M⁻¹ s⁻¹. Besides, the “Jurkat-CD137/CHO-PD-1 Reporter Assay EC50” value in assay [3] stood at 0.0145 nM.

B2: TPP-1028: CD137A -6GS-HSA3-6GS-PD138G7(G109D)-His (bispecific antibody)
chain: EVQLVESGGGLVQPGGSLRLSCAASGFTLSNYWMNWVRQAPGKGLEWVANINQDGSERYYVDSVKGRFTISRDNAKNSLYLQMNSLRAEDTAVYYCARGGEGYGVDHYGLDVSGQGTTVTVSSGGGGSGGGGSGGGGSGGGGSGGGGSGGGGSEVQLLESGGGLVKPGGSLRLSCAASGFTVSSYTMNWVRQAPGKGLEWVSSISSSGRYIYYADSVKGRFTISRDNAKNSLYLQMNSLRAEDTAVYYCARDPRMVGNPHEFDIWGQGTMVTVSSGGGGSGGGGSGGGGSGGGGSGGGGSGGGGSEVQLVESGGGVVRPGGSLRLSCAASGFTFDDYAMSWVRQAPGKGLEWVSGITWNGGSTGYADSVKDRFTISRDNAKNSLYLQMNSLRAEDTALYYCVRDKYSYAWSYDDFDIWGQGTMVTVSSAAAHHHHHH
notes: Single-chain VH fusion (CD137 VH, HSA VH, PD-1 VH), His tag
With B2, the concentration for a half-maximal effect (EC50) – broadly, the concentration needed to bring the measured effect to its halfway point – in assay [4] was 1.99 nM; in assay [5], 22.7 nM; in assay [6] it was 0.583 nM; in assay [7], 0.151 nM.

B3: TPP-1438 CD137A-6GS-HSA2-6GS-PD138G7(G109D)-6GS-PD138G7(G109D) (bispecific antibody)
chain: EVQLVESGGGLVQPGGSLRLSCAASGFTLSNYWMNWVRQAPGKGLEWVANINQDGSERYYVDSVKGRFTISRDNAKNSLYLQMNSLRAEDTAVYYCARGGEGYGVDHYGLDVSGQGTTVTVSSGGGGSGGGGSGGGGSGGGGSGGGGSGGGGSEVQLVESGGGLVKPGGSLRLSCAASGFTFSNYNMNWVRQAPGKGLEWVSSISSAGTHIYYADSVKGRFTISRDNAKNSLYLQMNSLRAEDTAVYYCARDPHSTGWYKDFDYWGQGTLVTVSSGGGGSGGGGSGGGGSGGGGSGGGGSGGGGSEVQLVESGGGVVRPGGSLRLSCAASGFTFDDYAMSWVRQAPGKGLEWVSGITWNGGSTGYADSVKDRFTISRDNAKNSLYLQMNSLRAEDTALYYCVRDKYSYAWSYDDFDIWGQGTMVTVSSGGGGSGGGGSGGGGSGGGGSGGGGSGGGGSEVQLVESGGGVVRPGGSLRLSCAASGFTFDDYAMSWVRQAPGKGLEWVSGITWNGGSTGYADSVKDRFTISRDNAKNSLYLQMNSLRAEDTALYYCVRDKYSYAWSYDDFDIWGQGTMVTVSS
notes: as for B1
With B3, in assay [1], the Kd came to 0.62 nM, the dissociation rate constant (koff) came to 0.00011 s⁻¹ and the association rate constant (kon) is 500000 M⁻¹ s⁻¹. In assay [2], the Kd came to 0.0951 nM, the koff stood at 5.02e-05 s⁻¹ and the kon came to 527000 M⁻¹ s⁻¹. For the same molecule, in assay [3], the “Jurkat-CD137/CHO-PD-1 Reporter Assay EC50” value was 0.00466 nM.

B4: TPP-799 PSMA-6GS-CD137-6GS-HSA (bispecific antibody)
chain: EVQLVESGGGVVQPGRSLRLSCAASGFSFSGYGMHWVRQAPGKGLEWVAYISYDGSNKYYADSVKGRFTISRDNSKNTLYLQMNSLRAEDTAVYYCAKDPAWGLRLGESSSYDFDIWGQGTMVTVSSGGGGSGGGGSGGGGSGGGGSGGGGSGGGGSEVQLVESGGGVVQPGGSLRLSCAASGFTFSNYGMHWVRQAPGKGLEWVAVISNDGNTKTYADSVKGRFTISRDNSKNTLYLQMNSLRAEDTAVYYCAQDETTTVTASYYFDYWGQGTLVTVSSGGGGSGGGGSGGGGSGGGGSGGGGSGGGGSEVQLVESGGGLVQPGRSLRLSCAASGFTFHHYAMHWVRQAPGKGLEWVSGISWNGNKITYADSVKGRFTISRDNAKNSLYLQMNSLRAEDTALYYCVRDSSLFIVGAPTFEHWGRGTLVTVSS
For the molecule B4, the “Jurkat-CD137/CHO-PSMA Reporter Assay EC50” value in assay [8] stood at 5.6 nM.

B5: TPP-806 PSMA-6GS-CD137-6GS-HSA (bispecific antibody)
chain: EVQLVESGGGVVQPGRSLRLSCAASGFSFSGYGMHWVRQAPGKGLEWVAYISYDGSNKYYADSVKGRFTISRDNSKNTLYLQMNSLRAEDTAVYYCAKDPAWGLRLGESSSYDFDIWGQGTMVTVSSGGGGSGGGGSGGGGSGGGGSGGGGSGGGGSEVQLVESGGGLVQPGGSLRLSCAASGFTFSNYGMHWVRQAPGKGLEWVAVISNDGNTKTYADSVKGRFTISRDNSKNTLYLQMNSLRTEDTAVYYCAQDETTTVTASYYFDYWGQGTLVTVSSGGGGSGGGGSGGGGSGGGGSGGGGSGGGGSEVQLVESGGGLVQPGRSLRLSCAASGFTFHHYAMHWVRQAPGKGLEWVSGISWNGNKITYADSVKGRFTISRDNAKNSLYLQMNSLRAEDTALYYCVRDSSLFIVGAPTFEHWGRGTLVTVSS
Take B5: in assay [8], the “Jurkat-CD137/CHO-PSMA Reporter Assay EC50” value was determined as 9.3 nM.

B6: TPP-805 PSMA-6GS-CD137-6-6GS-HSA (bispecific antibody)
chain: EVQLVESGGGVVQPGRSLRLSCAASGFSFSGYGMHWVRQAPGKGLEWVAYISYDGSNKYYADSVKGRFTISRDNSKNTLYLQMNSLRAEDTAVYYCAKDPAWGLRLGESSSYDFDIWGQGTMVTVSSGGGGSGGGGSGGGGSGGGGSGGGGSGGGGSEVQLVESGGGLVQPGGSLRLSCAASGFTFSNYGMHWVRQAPGKGLEWVAVISNDGNTKTYADSVKGRFTISRDNSKNMLYLQMNSLRTEDTAVYYCAQDETTTVTASYYFDYWGQGTLVTVSSGGGGSGGGGSGGGGSGGGGSGGGGSGGGGSEVQLVESGGGLVQPGRSLRLSCAASGFTFHHYAMHWVRQAPGKGLEWVSGISWNGNKITYADSVKGRFTISRDNAKNSLYLQMNSLRAEDTALYYCVRDSSLFIVGAPTFEHWGRGTLVTVSS
Regarding B6, the “Jurkat-CD137/CHO-PSMA Reporter Assay EC50” value in assay [8] amounted to 16 nM.

B7: TPP-801 PSMA-6GS-CD137-6GS-HSA (bispecific antibody)
chain: EVQLVESGGGVVQPGRSLRLSCAASGFSFSGYGMHWVRQAPGKGLEWVAYISYDGSNKYYADSVKGRFTISRDNSKNTLYLQMNSLRAEDTAVYYCAKDPAWGLRLGESSSYDFDIWGQGTMVTVSSGGGGSGGGGSGGGGSGGGGSGGGGSGGGGSEVQLVESGGGVVQPGGSLRLSCAASGFTFSNYGMHWVRQAPGKGLEWVAVISNDGNTKTYADSVKGRFTISRDNSKNTLYLQMNSLRAEDTAVYYCAQDETTTVTASYYFDYWGQGTLVTVSSGGGGSGGGGSGGGGSGGGGSGGGGSGGGGSEVQLVESGGGLVKPGGSLRLSCAASGFTFSNYNMNWVRQAPGKGLEWVSSISSAGTHIYYADSVKGRFTISRDNAKNSLYLQMNSLRAEDTAVYYCARDPHSTGWYKDFDYWGQGTLVTVSS
B7: the “Jurkat-CD137/CHO-PSMA Reporter Assay EC50” value in assay [8] was 1.3 nM.
